Measured values as given in US20240091345A1.

Legend:
[1] = molecular target: Recombinant gI protein (~46 kDa) from HSV-2 (BMP1052b or BMP1292) (HSV-2); experiment: indirect ELISA on coated HSV-2 gI, one mouse
[2] = molecular target: Recombinant gE/gI heterodimer protein (BMP1299) from HSV-1 (HSV-1) (UniProt P06487); experiment: indirect ELISA on coated HSV-1 gE/gI
[3] = molecular target: Recombinant gE protein (~51 kDa) from HSV-2 (BMP1049 or BMP1291) (HSV-2); experiment: indirect ELISA on coated HSV-2 gE
[4] = molecular target: Recombinant gI protein (~46 kDa) from HSV-2 (BMP1052b or BMP1292) (HSV-2); experiment: indirect ELISA on coated HSV-2 gI

UniProt P06487, sequence (P06487 whole entry, one chain of several): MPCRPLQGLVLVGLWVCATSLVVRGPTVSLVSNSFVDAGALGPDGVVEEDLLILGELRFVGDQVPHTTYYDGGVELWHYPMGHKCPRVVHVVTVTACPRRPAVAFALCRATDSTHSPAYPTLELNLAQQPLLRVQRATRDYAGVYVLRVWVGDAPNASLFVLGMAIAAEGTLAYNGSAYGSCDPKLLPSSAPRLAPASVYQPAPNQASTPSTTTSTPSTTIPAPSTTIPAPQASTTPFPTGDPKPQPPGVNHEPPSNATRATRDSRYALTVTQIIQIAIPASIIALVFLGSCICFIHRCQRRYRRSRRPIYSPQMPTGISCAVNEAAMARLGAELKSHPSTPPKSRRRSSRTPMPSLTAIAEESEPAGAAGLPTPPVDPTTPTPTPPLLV

In the case of “serum of CB6F1 mice injected with NaCl 150 mM (Example 1, group 6, negative control) (antibody)”, the IgG titer [1] is reported as 135 EU/mL.

“serum of CB6F1 mice injected with NaCl 150 mM (Example 2, group 7, negative control) (antibody)” showed an IgG titer [2] of 11 EU/mL.

“serum of CB6F1 mice injected with NaCl 150 mM (Example 3, group 7, negative control) (antibody)” showed an IgG titer [3] of 17 EU/mL and an IgG titer [4] of 17 EU/mL.
